# Measured values taken from the RNAGym collection of RNA variant scans (doi:10.1073/pnas.2313332121).
# B1: TPR t1 (parent)
# chain: GACCAAUCUGCCCUCAGAGCUCGAGAACAUCUUCGGAUGCAGAGGAGGCAGGCUUCGGUGGCGCGAUAGCGCCAACGUCCUCAACCUCCAAUGCAUCCCACCACAUGAUGAUGCCUGAAGAGCCUUGGUUUUUUG
# Variants of: B1
# Test: polymerase ribozyme fitness, log enrichment relative to wild type (log ratio); higher = more active; in vitro selection for triplet polymerase activity
# In short: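 Only genotypes with ≥10 input reads and ≥1 read per output were kept after Illumina sequencing of input and output libraries. These libraries were PCR-built, transcribed mutants of each subunit of a heterodimeric triplet polymerase ribozyme, each put through one triplicate in vitro selection round with frozen incubation at −7 °C, gel excision of extended constructs, streptavidin-bead capture and RT-PCR. Fitness is a logarithmic ratio of genotype enrichment to wild-type enrichment, from inverse-variance-weighted replicate averages, with the logarithm in base 2.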
row,Variant,polymerase ribozyme fitness (log ratio)
1,GACCAAUCUGCCCUCAGAGCUCGAGAACAUCUUCGGAUGCAGAGGAGGCAGGCUUCGCUCGCGCGAUAGCGCCAACGUCCUCAACCUCCAAUGCAUCCCACCACAUGAUGUUGCCUGAAGAGCCUUGGUUUUUUG [G58C G60C A111U],-3.12
2,GACCAAUCUGCCCUCAGAGCUCGAGAACAUCUUCGGAUGCAGAGGAGGCAGGCUUCGUUGGCGCGAUAGCGCCAACGUCCUCAACCUCCAAUGCAUCCCACCACAUGAUGAUGUCUGAAGAGCCUUGGUUUUUUG [G58U C114U],-2.25
3,GACCAAUCUGCCCUCAGAGCUCGAGAACAUCUUCGGAUGCAGAGGAGGCAGGCUUCGCCGGCGCGAUAGCGCCAACGUCCUCCACCUCCAAUGCAUCCCACCACAAGAUGAUGCCUGAAGAGCCUUGGUUUUUUG [G58C U59C A83C U106A],-0.577
4,GACCAAUCUGCCCUCAGAGCUCGAGAACAUCUUCGGAUGCAGAGGAGGCAGGCUUCGGAGGCGCGAUAGCGCCAACGUCCUCAACCUCCAAUGCUUCCCACCACAUGAUGAUGCCUGAAGAGCCUUGAUUUUUUG [U59A A95U G128A],-2.84
5,GACCAAUCUGCCCUCAGAGCUCGAGAACAUCUUCGGAUGCAGAGGAGGCAGGCUUCGUUGGCGCGAUAGCACCAACAUCCUCAACCUCCAAUGCAUCCCACCACAUGAUGAUGCCUGAAGAGCCUUGGUUUUUUG [G58U G71A G77A],0.0877
6,GACCAAUCUGCCCUCAGAGCUCGAGAACAUCUUCGGAUGCAGAGGAGGCAGGCUUCGGAGGCGCGAUAGCGCCAACUUCCUCAACCUCCAAUGCAUCCCACCACAUGAUGAUGCCUGAAGAGCCUUGGUGUUUUG [U59A G77U U130G],-1.24
7,GACCAAUCUGCCCUCAGAGCUCGAGAACAUCUUCGGAUGCAGAGGAGGCAGGCUUCGGAGGCGCGAUAGCGACAACGUCCUCAACCUCCAAUGCAUCCCACCACAUGAAGAUGCCUGAAGAGCCUUGGUUUUUUG [U59A C72A U109A],-7.12
8,GACCAAUCUGCCCUCAGAGCUCGAGAACAUCUUCGGAUGCAGAGGAGGCAGGCUUCGGCGGCGCGAUAGCGCCAACGUCCUCAACCUCCAAUGCAUCCCACCUCAUGAUGACGCCUGAAGAGCCUUGUUUUAAUG [U59C A103U U112C G128U U132A U133A],-5.05
9,GACCAAUCUGCCCUCAGAGCUCGAGAACAUCUUCGGAUGCAGAGGAGGCAGGCUUCGGCGGCGCGAUAGCGCCAACGUCCUCACCCUCCAAUGCAUCCCACCACAUGAUGAUGCCUGAAGAGCCUUGGUUUUUUG [U59C A84C],-0.231
10,GACCAAUCUGCCCUCAGAGCUCGAGAACAUCUUCGGAUGCAGAGGAGGCAGGCUUCGGAGUCGCGAUAGCGCCAACGUCCUCAUCCUCCAAUGCAUCCCACCACAUGAUGAUGCCUGAAGAGCCUUGGUUUUUUG [U59A G61U A84U],-0.153
11,GACCAAUCUGCCCUCAGAGCUCGAGAACAUCUUCGGAUGCAGAGGAGGCAGGCUUCGGCGGCGCGUUAGCGCCAACGUCCUCAACCUCCAAUGCAUCCCACCACAUGAUGAUGCCUGAAGAGCCUUGGUUUUUUG [U59C A66U],-1.57
12,GACCAAUCUGCCCUCAGAGCUCGAGAACAUCUUCGGAUGCAGAGGAGGCAGGCUUCGGCGGCGCGGUAGCGCCAACGUCCUCAACCUCCAAUGCAUCCCACCACAUGAUGAUGCCUGAAGAGCCUUGGUUUUUUG [U59C A66G],-1.47
13,GACCAAUCUGCCCUCAGAGCUCGAGAACAUCUUCGGAUGCAGAGGAGGCAGGCUUCGGAGGCGCGAUAGUGCCAACGUCCUCAACCUCCAAUGCAUCCCACCACAUGAUGAUGCCUGAAGAGCCUUGGUUUUUUG [U59A C70U],-0.265
14,GACCAAUCUGCCCUCAGAGCUCGAGAACAUCUUCGGAUGCAGAGGAGGCAGGCUUCGCUGGCGCGAUAGUGCCAACGUCCUCAACCUCCAAUGCAUCCCACCACAUGAUGAUGCCUGAAGAGCCUUGGUUUUUUG [G58C C70U],-0.846
15,GACCAAUCUGCCCUCAGAGCUCGAGAACAUCUUCGGAUGCAGAGGAGGCAGGCUUCGCUGGCGCGAUAGCGCCAACGUCCUCAACCUCCAAUGCAUCCCACCACAUGAUGAUGCCUGUAGAGCCUUCGUUUUUUG [G58C A118U G127C],-1.14
16,GACCAAUCUGCCCUCAGAGCUCGAGAACAUCUUCGGAUGCAGAGGAGGCAGGCUUCGGAGGCGCGAUAGCGCCAACGUCCUCAAACUCCAAUGAAUCCCACCACAUGAUGAUGCCUGAAAAGCCUUGGUUUUUUG [U59A C85A C94A G120A],-0.6
17,GACCAAUCUGCCCUCAGAGCUCGAGAACAUCUUCGGAUGCAGAGGAGGCAGGCUUCGGAGUCGCGAUAGCGCCAACGUCCUCAACCUCCAAUGCAUCCCACCACAUGAUGAUGCCUGAAGAGCCUUGGUUUUUUG [U59A G61U],-0.465
18,GACCAAUCUGCCCUCAGAGCUCGAGAACAUCUUCGGAUGCAGAGGAGGCAGGCUUCGCUGGCGCGAUAGCGCCAACGUCCUCAACCUCCAAUGCAAACCACCAAAUGAUGAUGCCUGAAUAGCCUUGCUUUUUUG [G58C U96A C97A C104A G120U G128C],-7.29
19,GACCAAUCUGCCCUCAGAGCUCGAGAACAUCUUCGGAUGCAGAGGAGGCAGGCUUCGGAGGCGCGAUAGCGCCAACGUCCUCAACCUCCAAUGCAUCCCAUCACAUGAUGAUGCCUGAAGAGCAUUGGUUUUUUG [U59A C101U C124A],1.59
20,GACCAAUCUGCCCUCAGAGCUCGAGAACAUCUUCGGAUGCAGAGGAGGCAGGCUUCGCUGGCGCGAUAGCGCCAACGUCCUCAACCUCCAAUGCAUCCCACCACAUGAUGAUGCCUGAAGAGCCUCGGUUUUUUG [G58C U126C],-1.22
21,GACCAAUCUGCCCUCAGAGCUCGAGAACAUCUUCGGAUGCAGAGGAGGCAGGCUUCGGAGGAGCGAUAGCGCCAACGUCCUCAACCUCCAAUGCAUCCCCCCACAAGAUGAUGCCUGAAGAGCGUUGGUUUUUUG [U59A C62A A100C U106A C124G],-0.96

row,Variant,polymerase ribozyme fitness (log ratio)
1,GACCAAUCUGCCCUCAGAGCUCGAGAACAUCUUCGGAUGCAGAGGAGGCAGGCUUCGGAGGCGCGAUAGCGCCAACGUCCUCAACCUCCAAUGCAUCCCACCACAUGAUGAUGCCUAAAGAGCCUUGGUUUUUUG [U59A G117A],-1.36
2,GACCAAUCUGCCCUCAGAGCUCGAGAACAUCUUCGGAUGCAGAGGAGGCAGGCUUCGUUGGCGCGAUAGCGCCAACGUCCUCAACCUCCAAUGCAUCCCACCACAUGAUGAUGCCUGAGGAGCCUUGGUUUUUUG [G58U A119G],0.849
3,GACCAAUCUGCCCUCAGAGCUCGAGAACAUCUUCGGAUGCAGAGGAGGCAGGCUUCGGAGGCGCGAUAGCGCCAACUUCCUCAACCUCCAAUGCAUCCCACCACAUGAUGAUGCCUGAAGAGCCUUGGUUUUUUG [U59A G77U],-2.02
4,GACCAAUCUGCCCUCAGAGCUCGAGAACAUCUUCGGAUGCAGAGGAGGCAGGCUUCGGAGGCGCGAUAGUGCCAACGUCCUCAACCUCCAAUGCAUCCCACAACUUGAUGGUGCCUGAAGAGCCUUGAAUUUUUG [U59A C70U C102A A105U A111G G128A U129A],-5.83
5,GACCAAUCUGCCCUCAGAGCUCGAGAACAUCUUCGGAUGCAGAGGAGGCAGGCUUCGUUGGCGCGAUAUCGCCAACGUCCUCAACCUCCAAUGCAUACCACCACAUGAUGAUGCCUGAACAGCCUUGGUUUUUUG [G58U G69U C97A G120C],-1.35
6,GACCAAUCUGCCCUCAGAGCUCGAGAACAUCUUCGGAUGCAGAGGAGGCAGGCUUCGUUGGCGCGAUAGCGCCAACGUCCUCAACCUCCAAUGCAUCUCACCACAUGAUGAUGCCUGAAGAGCCAUGGUUUUUUG [G58U C98U U125A],-1.35
7,GACCAAUCUGCCCUCAGAGCUCGAGAACAUCUUCGGAUGCAGAGGAGGCAGGCUUCGCUGGCGCGAUAGCGCCAACGUCCUCAACCUCCAAUGCAUCCCACCACAUGAUGAUGCCUGGACAGCCUUGGUUUUUUG [G58C A118G G120C],-0.431
8,GACCAAUCUGCCCUCAGAGCUCGAGAACAUCUUCGGAUGCAGAGGAGGCAGGCUUCGGAGGCGCGAUAGCGCCAACAUCCUCCACCUCCAAAGCAUCCCACUACAUGACGAUGUCUGAAGAGCCUUGGUUUUUUG [U59A G77A A83C U92A C102U U109C C114U],-6.72
9,GACCAAUCUGCCCUCAGAGCUCGAGAACAUCUUCGGAUGCAGAGGAGGCAGGCUUCGCUGGCGCGAUAGCGCCAACGUCCUCAACCUCCAAUGCAUCCCACCACAUGAUGGUGCCUGAAGAGCCUUGGUUUUUUG [G58C A111G],0.509
10,GACCAAUCUGCCCUCAGAGCUCGAGAACAUCUUCGGAUGCAGAGGAGGCAGGCUUCGGAGGCGCGAUAGCGCCAACGUCCUCAACCUCCAAUGCAUCCCACUCCAUGAUGAUGCCUGAAGAGCCUUGGUUUUUUG [U59A C102U A103C],-5.53
11,GACCAAUCUGCCCUCAGAGCUCGAGAACAUCUUCGGAUGCAGAGGAGGCAGGCUUCGCUGGCGCGAUAGCGCUAACGUCCUCAACGUCCAAUGCAUCCCACCACAUGAUGAUGCCUGAAGAGCCUUGGUUUUUUG [G58C C73U C86G],-0.297
12,GACCAAUCUGCCCUCAGAGCUCGAGAACAUCUUCGGAUGCAGAGGAGGCAGGCUUCGUUGGCGCGAUAGCACCAACGUACUCAACCUCCAAUGCAUCCCACCGCAUGAUGAUGCUUGAAGAGCCUUGGUUUUUUG [G58U G71A C79A A103G C115U],-7.13
13,GACCAAUCUGCCCUCAGAGCUCGAGAACAUCUUCGGAUGCAGAGGAGGCAGGCUUCGGAGGCGCGAUAGCGCCAACGUCCUCAACCUCCAAUGCAUCCCAACACAUGAUGAUGACUGAAGAGCCUUGGUUUUUUG [U59A C101A C114A],-2.95
14,GACCAAUCUGCCCUCAGAGCUCGAGAACAUCUUCGGAUGCAGAGGAGGCAGGCUUCGCUGGCGCGAUAGCGCAAACGUCCUCAACCUCCAAUGCAUCGCACCACAUGAUGAUGCCUGAAGAGCCUUGGUUUUUUG [G58C C73A C98G],-6.44
15,GACCAAUCUGCCCUCAGAGCUCGAGAACAUCUUCGGAUGCAGAGGAGGCAGGCUUCGCUGGCGCGAUAGCGCCAAUGUCCUCAACCUCCAAUGCAUCCCACCAAAUGAUGAUUCCUGACGAGCCUUGGUUUUUUG [G58C C76U C104A G113U A119C],-6.29
16,GACCAAUCUGCCCUCAGAGCUCGAGAACAUCUUCGGAUGCAGAGGAGGCAGGCUUCGCUGGCGCGAUAGUGCCAACGUCCUCAACCUCCAAUGCAUCCCACCACAUGAUCAUGCCUGAAGUGCCUUGGUUUUUUG [G58C C70U G110C A121U],-5.63
17,GACCAAUCUGCCCUCAGAGCUCGAGAACAUCUUCGGAUGCAGAGGAGGCAGGCUUCGGAGGCGCGAUAGCGCCAACGUCCUCAACCUCCAAUGCAUCCCACCACAUGAUGAUGCCUGAAGAGGCUUGGUUUUUUG [U59A C123G],2
18,GACCAAUCUGCCCUCAGAGCUCGAGAACAUCUUCGGAUGCAGAGGAGGCAGGCUUCGUUGGCACGAUAGCGCCAACGUCCUAAACCUCCAAUGCAUUCCACCACAUGAUAAUGCCUGAAGAGCCUUGGUUUUUUG [G58U G63A C82A C97U G110A],-4.64
19,GACCAAUCUGCCCUCAGAGCUCGAGAACAUCUUCGGAUGCAGAGGAGGCAGGCUUCGGAGGCGCGAUAGCGCCAACGUCCUCAACCACCAAUGCAUCCCACCACAUGAUGAUGCCUGAAGAGCCUUGGUUUUUUG [U59A U87A],-0.298
20,GACCAAUCUGCCCUCAGAGCUCGAGAACAUCUUCGGAUGCAGAGGAGGCAGGCUUCGGAGGCGCGAUAGCGCCAACGUCCUCAACCGCCAAUGCAUCCCACCACAUGAUGAUGCCUGAAGAGCCUUGGUUUUUUG [U59A U87G],-0.319
21,GACCAAUCUGCCCUCAGAGCUCGAGAACAUCUUCGGAUGCAGAGGAGGCAGGCUUCGGAGGCGCGAUAGCGCCAACGUCCUCAACCUGCAAUGCAUCCCACCACAUGAUGAUGCCUGAAGAGCCUUGGUUUUUUG [U59A C88G],-1.44
